# Data as given in paper PMC2756588.
# T1: Bzz1-2, P38822
# T1 sequence (P38822 568-633, looked up): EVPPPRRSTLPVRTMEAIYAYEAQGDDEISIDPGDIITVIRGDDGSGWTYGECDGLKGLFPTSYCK
# T2: Abp1, P15891
# T2 sequence (P15891 535-592, looked up): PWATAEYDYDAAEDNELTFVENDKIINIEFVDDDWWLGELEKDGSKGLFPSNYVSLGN
# T3: Boi1, P38041
# T3 sequence (P38041 1-86, looked up): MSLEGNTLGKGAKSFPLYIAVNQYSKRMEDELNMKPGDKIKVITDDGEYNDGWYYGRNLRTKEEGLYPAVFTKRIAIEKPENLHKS
# T4: Lsb3, P43603
# T4 sequence (P43603 385-451, looked up): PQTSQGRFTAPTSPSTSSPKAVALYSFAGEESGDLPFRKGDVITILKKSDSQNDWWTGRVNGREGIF
# T5: Fus1, P11710
# T5 sequence (P11710 432-512, looked up): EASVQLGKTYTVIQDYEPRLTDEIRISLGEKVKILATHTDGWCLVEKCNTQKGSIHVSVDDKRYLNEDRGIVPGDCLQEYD
# T6: Hof1, Q05080
# T6 sequence (Q05080 590-669, looked up): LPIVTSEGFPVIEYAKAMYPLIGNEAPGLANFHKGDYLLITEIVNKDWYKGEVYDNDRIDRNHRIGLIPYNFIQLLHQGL
# T7: Pex13, P80667
# T7 sequence (P80667 295-386, looked up): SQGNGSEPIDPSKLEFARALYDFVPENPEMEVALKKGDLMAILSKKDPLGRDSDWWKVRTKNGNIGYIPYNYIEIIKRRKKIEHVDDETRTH
# T8: Bzz1-1, P38822
# T8 sequence (P38822 478-572, looked up): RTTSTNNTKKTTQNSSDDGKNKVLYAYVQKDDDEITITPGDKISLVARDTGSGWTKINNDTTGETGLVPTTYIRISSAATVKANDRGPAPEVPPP
# T9: Bud14, P27637
# T9 sequence (P27637 247-328, looked up): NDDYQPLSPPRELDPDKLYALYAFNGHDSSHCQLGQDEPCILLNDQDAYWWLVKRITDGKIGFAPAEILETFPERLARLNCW
# T10: Bbc1, P47068
# T10 sequence (P47068 1-78, looked up): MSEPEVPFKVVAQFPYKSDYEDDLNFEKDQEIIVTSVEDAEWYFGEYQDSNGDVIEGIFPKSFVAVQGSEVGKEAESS
# T11: Boi2, P39969
# T11 sequence (P39969 32-116, looked up): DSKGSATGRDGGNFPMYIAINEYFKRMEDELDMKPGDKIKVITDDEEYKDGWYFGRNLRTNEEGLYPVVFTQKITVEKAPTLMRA
# T12: Lsb4, P32793
# T12 sequence (P32793 402-468, looked up): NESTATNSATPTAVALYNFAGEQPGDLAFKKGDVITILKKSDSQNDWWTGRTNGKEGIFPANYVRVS
# T13: Cyk3, Q07533
# T13 sequence (Q07533 1-83, looked up): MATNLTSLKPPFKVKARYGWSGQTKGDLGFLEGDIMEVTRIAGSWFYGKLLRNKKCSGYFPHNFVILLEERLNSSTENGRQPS
# T14: Pin3, Q06449
# T14 sequence (Q06449 53-122, looked up): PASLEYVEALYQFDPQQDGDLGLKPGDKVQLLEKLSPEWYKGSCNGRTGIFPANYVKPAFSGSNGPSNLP
# T15: Cdc25, P04821
# T15 sequence (P04821 50-136, looked up): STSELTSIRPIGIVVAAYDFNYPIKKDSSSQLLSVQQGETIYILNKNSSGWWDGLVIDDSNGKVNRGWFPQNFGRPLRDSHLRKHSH
# T16: Lsb1, P53281
# T16 sequence (P53281 45-122, looked up): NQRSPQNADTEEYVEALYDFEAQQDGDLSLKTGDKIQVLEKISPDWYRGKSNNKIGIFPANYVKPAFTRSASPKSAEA
# T17: Sla1-3, P32790
# T17 sequence (P32790 344-424, looked up): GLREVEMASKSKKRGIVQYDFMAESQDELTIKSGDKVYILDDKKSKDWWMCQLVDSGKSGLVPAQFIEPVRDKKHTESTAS
# T18: Sla1-2, P32790
# T18 sequence (P32790 60-140, looked up): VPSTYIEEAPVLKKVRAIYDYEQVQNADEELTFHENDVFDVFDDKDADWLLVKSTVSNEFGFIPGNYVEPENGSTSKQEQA
# T19: Hse1, P38753
# T19 sequence (P38753 208-285, looked up): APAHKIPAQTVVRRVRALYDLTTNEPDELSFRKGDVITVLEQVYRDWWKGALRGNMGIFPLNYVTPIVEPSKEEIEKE
# T20: Nbp2, Q12163
# T20 sequence (Q12163 103-180, looked up): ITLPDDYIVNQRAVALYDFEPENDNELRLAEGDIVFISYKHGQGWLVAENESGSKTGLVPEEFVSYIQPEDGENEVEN
# T21: Myo5, Q04439
# T21 sequence (Q04439 1072-1160, looked up): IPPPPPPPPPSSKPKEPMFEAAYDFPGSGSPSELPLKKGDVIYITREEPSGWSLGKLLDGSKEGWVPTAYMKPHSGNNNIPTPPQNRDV
# B1: unnamed (peptide)
# chain: RPVPPPPPMRTTTEG
# B2: unnamed (peptide)
# chain: RRGPAPPPPPRASRP
# B3: unnamed (peptide)
# chain: PAPPPPPRASRPTPN
# B4: unnamed (peptide)
# chain: SGVRLPAPPPPPRRG
# B5: unnamed (peptide)
# chain: RNNRPVPPPPPMRTT
# B6: unnamed (peptide)
# chain: RLPAPPPPPRRGPAP
# Target: T1, Bzz1-2, P38822
# Assay: SPOT array
# Details: median of control spots 4538
row,Binder,SPOT intensity
1,B1,664
2,B2,27
3,B3,0
4,B4,20
5,B5,233
6,B6,9

# Target: T2, Abp1, P15891
# Assay: SPOT array
# Details: median of control spots 935
row,Binder,SPOT intensity
1,B1,0
2,B2,0
3,B3,0
4,B4,0
5,B5,0
6,B6,0

# Target: T3, Boi1, P38041
# Assay: SPOT array
# Details: median of control spots 1162
row,Binder,SPOT intensity
1,B1,0
2,B2,0
3,B3,1
4,B4,0
5,B5,0
6,B6,0

# Target: T4, Lsb3, P43603
# Assay: SPOT array
# Details: median of control spots 406
row,Binder,SPOT intensity
1,B1,0
2,B2,0
3,B3,0
4,B4,0
5,B5,0
6,B6,0

# Target: T5, Fus1, P11710
# Assay: SPOT array
# Details: median of control spots 1200
row,Binder,SPOT intensity
1,B1,1
2,B2,0
3,B3,1
4,B4,0
5,B5,0
6,B6,0

# Target: T6, Hof1, Q05080
# Assay: SPOT array
# Details: median of control spots 4086
row,Binder,SPOT intensity
1,B1,23
2,B2,2
3,B3,0
4,B4,633
5,B5,0
6,B6,5

# Target: Sho1, P40073
# Assay: SPOT array
# Details: median of control spots 1148
# Sho1, P40073, sequence (P40073 287-367): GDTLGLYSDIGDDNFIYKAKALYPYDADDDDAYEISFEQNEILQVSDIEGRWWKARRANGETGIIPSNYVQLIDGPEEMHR
row,Binder,SPOT intensity
1,B1,2
2,B2,0
3,B3,0
4,B4,0
5,B5,0
6,B6,0

# Target: Bem1-2, P29366
# Assay: SPOT array
# Details: median of control spots 4347
# Bem1-2, P29366, sequence (P29366 139-227): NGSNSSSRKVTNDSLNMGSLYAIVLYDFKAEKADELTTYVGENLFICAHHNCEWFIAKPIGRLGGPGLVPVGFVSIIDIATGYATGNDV
row,Binder,SPOT intensity
1,B1,6
2,B2,11
3,B3,0
4,B4,0
5,B5,0
6,B6,2

# Target: T7, Pex13, P80667
# Assay: SPOT array
# Details: median of control spots 1341
row,Binder,SPOT intensity
1,B1,185
2,B2,17
3,B3,56
4,B4,55
5,B5,201
6,B6,75

# Target: GST
# Assay: SPOT array
# Details: median of control spots 978
row,Binder,SPOT intensity
1,B1,0
2,B2,1
3,B3,1
4,B4,0
5,B5,0
6,B6,0

# Target: T8, Bzz1-1, P38822
# Assay: SPOT array
# Details: median of control spots 4446
row,Binder,SPOT intensity
1,B1,19
2,B2,45
3,B3,7
4,B4,6
5,B5,6
6,B6,31

# Target: T9, Bud14, P27637
# Assay: SPOT array
# Details: median of control spots 956
row,Binder,SPOT intensity
1,B1,0
2,B2,8
3,B3,6
4,B4,3
5,B5,0
6,B6,3

# Target: T10, Bbc1, P47068
# Assay: SPOT array
# Details: median of control spots 796
row,Binder,SPOT intensity
1,B1,0
2,B2,0
3,B3,0
4,B4,0
5,B5,0
6,B6,0

# Target: T11, Boi2, P39969
# Assay: SPOT array
# Details: median of control spots 1161
row,Binder,SPOT intensity
1,B1,0
2,B2,0
3,B3,0
4,B4,1
5,B5,1
6,B6,1

# Target: T12, Lsb4, P32793
# Assay: SPOT array
# Details: median of control spots 397
row,Binder,SPOT intensity
1,B1,0
2,B2,1
3,B3,0
4,B4,0
5,B5,0
6,B6,0

# Target: Rvs167, P39743
# Assay: SPOT array
# Details: median of control spots 2707
# Rvs167, P39743, sequence (P39743 419-482): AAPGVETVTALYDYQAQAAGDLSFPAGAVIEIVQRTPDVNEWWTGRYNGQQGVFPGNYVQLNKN
row,Binder,SPOT intensity
1,B1,7510
2,B2,3340
3,B3,514
4,B4,3630
5,B5,1870
6,B6,1500

# Target: T13, Cyk3, Q07533
# Assay: SPOT array
# Details: median of control spots 1451
row,Binder,SPOT intensity
1,B1,0
2,B2,0
3,B3,1
4,B4,1
5,B5,2
6,B6,0

# Target: T14, Pin3, Q06449
# Assay: SPOT array
# Details: median of control spots 2171
row,Binder,SPOT intensity
1,B1,59
2,B2,17
3,B3,6
4,B4,4
5,B5,31
6,B6,8

# Target: T15, Cdc25, P04821
# Assay: SPOT array
# Details: median of control spots 969
row,Binder,SPOT intensity
1,B1,0
2,B2,0
3,B3,0
4,B4,0
5,B5,0
6,B6,0

# Target: T16, Lsb1, P53281
# Assay: SPOT array
# Details: median of control spots 388
row,Binder,SPOT intensity
1,B1,0
2,B2,0
3,B3,0
4,B4,0
5,B5,0
6,B6,0

# Target: T17, Sla1-3, P32790
# Assay: SPOT array
# Details: median of control spots 5475
row,Binder,SPOT intensity
1,B1,2
2,B2,14
3,B3,0
4,B4,0
5,B5,0
6,B6,1

# Target: Myo3, P36006
# Assay: SPOT array
# Details: median of control spots 468
row,Binder,SPOT intensity
1,B1,0
2,B2,0
3,B3,0
4,B4,0
5,B5,0
6,B6,0

# Target: T18, Sla1-2, P32790
# Assay: SPOT array
# Details: median of control spots 712
row,Binder,SPOT intensity
1,B1,0
2,B2,0
3,B3,2
4,B4,3
5,B5,1
6,B6,0

# Target: T19, Hse1, P38753
# Assay: SPOT array
# Details: median of control spots 1727
row,Binder,SPOT intensity
1,B1,9
2,B2,10
3,B3,0
4,B4,0
5,B5,7
6,B6,1

# Target: T20, Nbp2, Q12163
# Assay: SPOT array
# Details: median of control spots 357
row,Binder,SPOT intensity
1,B1,0
2,B2,0
3,B3,0
4,B4,0
5,B5,0
6,B6,1

# Target: T21, Myo5, Q04439
# Assay: SPOT array
# Details: median of control spots 471
row,Binder,SPOT intensity
1,B1,2
2,B2,0
3,B3,1
4,B4,0
5,B5,1
6,B6,0

# Target: Bem1-1, P29366
# Assay: SPOT array
# Details: median of control spots 4282
# Bem1-1, P29366, sequence (P29366 55-141): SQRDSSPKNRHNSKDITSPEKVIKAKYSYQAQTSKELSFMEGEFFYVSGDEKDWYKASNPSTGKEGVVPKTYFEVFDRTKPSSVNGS
row,Binder,SPOT intensity
1,B1,3
2,B2,3
3,B3,0
4,B4,3
5,B5,5
6,B6,0
